The record followed here is doi:10.1101/2023.05.25.542299.

The target in assay [1] is FITC-labeled 45-mer peptide derived from the C-terminal region of IKKβ. In words: fluorescence polarisation; fluorescence anisotropy binding assay with the FITC-labeled IKKβ 45-mer peptide and NEMO proteins; conditions not told (refs 13, 23). On the technique in general: Polarisation of emitted light reports the rotation of a fluorescent probe.
Assay [2] addresses 45-mer peptide of IKKβ (as used in the CD experiments). In words: circular dichroism (spectra and thermal denaturation with and without ligand); 10 µM NEMO protein with or without equimolar IKKβ 45-mer peptide, incubated 1 h at room temperature; 20 mM sodium phosphate, 500 mM NaCl, pH 7.4; spectra at 25 °C, melt 10 to 70 °C at 222 nm. (In general: CD spectra are sensitive to the conformation of chiral molecules.)

A word on the Kd: it is the free concentration of one partner at which half of the binding sites on the other are occupied at equilibrium, for simple one-to-one binding. Read a high Kd as a looser complex.

Sequence of full-length WT NEMO (aa 1–419), bacterially expressed (Q9Y6K9 whole entry, the tested form may be a part): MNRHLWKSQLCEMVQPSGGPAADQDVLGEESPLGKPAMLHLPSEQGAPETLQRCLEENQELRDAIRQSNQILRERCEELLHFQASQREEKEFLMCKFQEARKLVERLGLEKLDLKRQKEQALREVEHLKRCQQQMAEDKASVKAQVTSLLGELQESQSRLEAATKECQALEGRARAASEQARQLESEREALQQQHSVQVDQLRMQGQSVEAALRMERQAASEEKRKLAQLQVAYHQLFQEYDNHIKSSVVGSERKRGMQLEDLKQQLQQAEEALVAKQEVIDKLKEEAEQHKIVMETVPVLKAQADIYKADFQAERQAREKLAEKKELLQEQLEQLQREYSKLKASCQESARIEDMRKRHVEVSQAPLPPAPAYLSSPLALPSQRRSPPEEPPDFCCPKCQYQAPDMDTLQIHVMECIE

“NEMO 1–419 OPTN-IVD, bacterially expressed (from UniProt Q9Y6K9 1-419) (natural protein)” yielded a Kd in assay [1] of 33 nM. The substance also registered an increase in Tm with equimolar peptide in assay [2] of 5 °C.

With “full-length WT NEMO (aa 1–419), bacterially expressed (from UniProt Q9Y6K9 1-419) (natural protein)”, in assay [1], the Kd was determined as 4.7 nM. In assay [2], the increase in Tm with equimolar peptide is 3 °C.
